# Data taken from US20110177084A1 (RIKEN, published 2011).
# T1: High mobility group box 1 (HMGB1) (UniProt P63158 1-215)
# T1 sequence (looked up): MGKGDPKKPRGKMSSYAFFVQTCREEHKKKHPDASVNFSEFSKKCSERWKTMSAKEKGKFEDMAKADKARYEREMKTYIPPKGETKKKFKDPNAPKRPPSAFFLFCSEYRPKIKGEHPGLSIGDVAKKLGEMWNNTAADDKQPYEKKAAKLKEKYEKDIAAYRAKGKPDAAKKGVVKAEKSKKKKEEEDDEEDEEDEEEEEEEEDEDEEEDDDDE
# T2: mouse Mincle (Macrophage inducible C-type lectin) (mouse, UniProt Q9R0Q8 1-214)
# T2 construct: whole, on cells; Expressed from cDNA in 293T, 2B4 and RBL-2H3 cells, or endogenous in mouse peritoneal macrophages; also called Clec4e; Clecsf9
# T2 sequence (looked up): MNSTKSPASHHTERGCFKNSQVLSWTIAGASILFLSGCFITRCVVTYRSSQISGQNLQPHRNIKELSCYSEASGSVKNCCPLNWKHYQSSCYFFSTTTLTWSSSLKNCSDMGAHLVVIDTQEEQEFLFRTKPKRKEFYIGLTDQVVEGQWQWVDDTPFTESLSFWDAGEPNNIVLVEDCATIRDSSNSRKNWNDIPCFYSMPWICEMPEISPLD
# Legend:
# [1] = target: T3, hIgG1 Fc (Ig) (human, UniProt P01857-1 99-330 = IgG part, limits assumed); test: pull-down from 2B4 dead cell lysate with Ig on Protein G Sepharose, silver staining, no Ca2+
# T3 construct: domain: hIgG1 Fc; Control for Ig-Mincle; also called control Ig
# From the text: A 2B4 dead cell lysate was pulled down using the indicated Sepharose beads and blotted with anti-SAP130, anti-DDB1, anti-HMGB1 and anti-hIgG-HRP.
# [2] = target: damaged-DNA binding protein 1 (DDB1) (UniProt Q3U1J4 2-1140); test: pull-down from 2B4 dead cell lysate, immunoblot with anti-DDB1
# From the text: The cells were also stained with Annexin V-FITC (AnV) and propidium iodide (PI). […] A 2B4 dead cell lysate was pulled down using the indicated Sepharose beads and blotted with anti-SAP130, anti-DDB1, anti-HMGB1 and anti-hIgG-HRP. […] Live (L) or dead (D) 2B4 cells were pulled down using the indicated beads and blotted with the indicated antibodies.
# [3] = target: T1, High mobility group box 1 (HMGB1); test: pull-down from 2B4 cell lysate, immunoblot with anti-HMGB1
# From the text: A 2B4 dead cell lysate was pulled down using the indicated Sepharose beads and blotted with anti-SAP130, anti-DDB1, anti-HMGB1 and anti-hIgG-HRP. […] Live (L) or dead (D) 2B4 cells were pulled down using the indicated beads and blotted with the indicated antibodies.
# [4] = target: T2, mouse Mincle (Macrophage inducible …); test: immunoprecipitation with anti-Mincle polyclonal antibody from macrophage lysate, anti-FcRγ blot
# Sequence of damaged-DNA binding protein 1 (DDB1) (Q3U1J4 2-1140 limits assumed): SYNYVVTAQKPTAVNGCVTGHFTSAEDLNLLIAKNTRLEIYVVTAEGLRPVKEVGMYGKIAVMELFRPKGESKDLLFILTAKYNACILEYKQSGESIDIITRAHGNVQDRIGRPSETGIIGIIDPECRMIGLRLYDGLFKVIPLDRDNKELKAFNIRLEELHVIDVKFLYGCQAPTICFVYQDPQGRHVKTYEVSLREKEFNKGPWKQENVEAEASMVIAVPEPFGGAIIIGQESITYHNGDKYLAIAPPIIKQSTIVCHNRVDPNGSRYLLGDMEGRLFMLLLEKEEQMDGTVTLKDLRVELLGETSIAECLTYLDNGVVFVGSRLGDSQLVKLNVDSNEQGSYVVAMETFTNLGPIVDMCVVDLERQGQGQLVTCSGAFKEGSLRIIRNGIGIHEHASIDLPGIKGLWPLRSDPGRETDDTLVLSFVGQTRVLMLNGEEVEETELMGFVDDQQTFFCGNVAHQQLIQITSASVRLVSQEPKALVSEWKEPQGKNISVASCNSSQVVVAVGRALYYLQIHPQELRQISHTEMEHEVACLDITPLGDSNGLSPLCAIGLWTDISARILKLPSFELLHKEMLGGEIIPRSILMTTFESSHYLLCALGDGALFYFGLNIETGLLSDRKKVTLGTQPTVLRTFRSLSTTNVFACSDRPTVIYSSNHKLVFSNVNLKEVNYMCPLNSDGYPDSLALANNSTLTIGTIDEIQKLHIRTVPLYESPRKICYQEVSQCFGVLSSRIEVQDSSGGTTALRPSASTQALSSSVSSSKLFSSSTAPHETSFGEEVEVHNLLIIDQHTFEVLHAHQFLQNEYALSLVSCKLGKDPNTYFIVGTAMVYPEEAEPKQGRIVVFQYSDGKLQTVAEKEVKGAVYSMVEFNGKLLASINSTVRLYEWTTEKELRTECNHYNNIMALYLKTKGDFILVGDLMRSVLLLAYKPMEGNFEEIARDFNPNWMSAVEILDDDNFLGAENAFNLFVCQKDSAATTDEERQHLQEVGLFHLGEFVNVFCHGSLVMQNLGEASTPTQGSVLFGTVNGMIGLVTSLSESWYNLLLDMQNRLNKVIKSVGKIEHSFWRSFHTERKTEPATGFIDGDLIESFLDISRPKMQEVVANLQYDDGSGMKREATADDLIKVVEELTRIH
binder,measurement,setting,value
"spliceosome-binding protein 130 (SAP130) from 2B4 cell lysate (ligand, UniProt Q921M3 1-1217, looked up, also called Sf3b3; 130-kD protein) MFLYNLTLQRATGISFAIHGNFSGTKQQEIVVSRGKILELLRPDPNTGKVHTLLTVEVFGVIRSLMAFRLTGGTKDYIVVGSDSGRIVILEYQPSKNMFEKIHQETFGKSGCRRIVPGQFLAVDPKGRAVMISAIEKQKLVYILNRDAAARLTISSPLEAHKANTLVYHVVGVDVGFENPMFACLEMDYEEADNDPTGEAAANTQQTLTFYELDLGLNHVVRKYSEPLEEHGNFLITVPGGSDGPSGVLICSENYITYKNFGDQPDIRCPIPRRRNDLDDPERGMIFVCSATHKTKSMFFFLAQTEQGDIFKITLETDEDMVTEIRLKYFDTVPVAAAMCVLKTGFLFVASEFGNHYLYQIAHLGDDDEEPEFSSAMPLEEGDTFFFQPRPLKNLVLVDELDSLSPILFCQIADLANEDTPQLYVACGRGPRSSLRVLRHGLEVSEMAVSELPGNPNAVWTVRRHIEDEFDAYIIVSFVNATLVLSIGETVEEVTDSGFLGTTPTLSCSLLGDDALVQVYPDGIRHIRADKRVNEWKTPGKKTIVKCAVNQRQVVIALTGGELVYFEMDPSGQLNEYTERKEMSADVVCMSLANVPPGEQRSRFLAVGLVDNTVRIISLDPSDCLQPLSMQALPAQPESLCIVEMGGTEKQDELGERGSIGFLYLNIGLQNGVLLRTVLDPVTGDLSDTRTRYLGSRPVKLFRVRMQGQEAVLAMSSRSWLSYSYQSRFHLTPLSYETLEFASGFASEQCPEGIVAISTNTLRILALEKLGAVFNQVAFPLQYTPRKFVIHPESNNLIIIETDHNAYTEATKAQRKQQMAEEMVEAAGEDERELAAEMAAAFLNENLPESIFGAPKAGNGQWASVIRVMNPIQGNTLDLVQLEQNEAAFSVAVCRFSNTGEDWYVLVGVAKDLILSPRSVAGGFVYTYKLVNNGEKLEFLHKTPVEEVPAAIAPFQGRVLIGVGKLLRVYDLGKKKLLRKCENKHIANYISGIQTIGHRVIVSDVQESFIWVRYKRNENQLIIFADDTYPRWVTTASLLDYDTVAGADKFGNICVVRLPPNTNDEVDEDPTGNKALWDRGLLNGASQKAEVIMNYHVGETVLSLQKTTLIPGGSESLVYTTLSGGIGILVPFTSHEDHDFFQHVEMHLRSEHPPLCGRDHLSFRSYYFPVKNVIDGDLCEQFNSMEPNKQKNVSEELDRTPPEVSKKLEDIRTRYAF",binding result,[1],no binding
"hIgG1 Fc-Mincle fusion protein (Ig-Mincle) (Fc fusion, mouse, UniProt Q9R0Q8 46-214, looked up, range 46-214; also called soluble Mincle protein; not shown: human IgG1 Fc region (hIgG Fc lacking a termination codon, from pME18S-SLAMsig-hIgG Fc)) TYRSSQISGQNLQPHRNIKELSCYSEASGSVKNCCPLNWKHYQSSCYFFSTTTLTWSSSLKNCSDMGAHLVVIDTQEEQEFLFRTKPKRKEFYIGLTDQVVEGQWQWVDDTPFTESLSFWDAGEPNNIVLVEDCATIRDSSNSRKNWNDIPCFYSMPWICEMPEISPLD",binding result,[2],no binding
same,binding result,[3],no binding
"endogenous FcRγ of mouse peritoneal macrophages (receptor, UniProt P20491 19-86, looked up, whole, on cells; Co-immunoprecipitated from the lysate of thioglycolate-induced, LPS-stimulated peritoneal macrophages) LGEPQLCYILDAVLFLYGIVLTLLYCRLKIQVRKAAIASREKADAVYTGLNTRSQETYETLKHEKPPQ",binding result,[4],binds
